Measurements published in US20230242611A1 (YEDA RESEARCH AND DEVELOPMENT, published 2023).
Positions count from the first letter of the chain named. In names and notes the source's numbering stands.

How the values were obtained:
[1] = molecular target: T1, MUC1 peptide on HLA-A*02:01 (human); test: cytokine release
T1 peptide: LLLTVLTVV

[2] = molecular target: T2, MAGE-A1 278-286 with alanine at position 9 peptide on HLA-A*02:01 (human); test: cytokine release
T2 peptide: KVLEYVIKA

[3] = molecular target: T3, MAGE-A1 278-286 with alanine at position 2 peptide on HLA-A*02:01 (human); test: cytokine release
T3 peptide: KALEYVIKV

[4] = molecular target: T4, MAGE-A1 278-286 with alanine at position 6 peptide on HLA-A*02:01 (human); test: cytokine release
T4 peptide: KVLEYAIKV

[5] = molecular target: T5, MAGE-A1 278-286 with alanine at position 3 peptide on HLA-A*02:01 (human); test: cytokine release
T5 peptide: KVAEYVIKV

[6] = molecular target: T6, MAGE-A1 278-286 with alanine at position 1 peptide on HLA-A*02:01 (human); test: cytokine release
T6 peptide: AVLEYVIKV

[7] = molecular target: T7, MAGE-A1 278-286 with alanine at position 4 peptide on HLA-A*02:01 (human); test: cytokine release
T7 peptide: KVLAYVIKV

[8] = molecular target: T8, MAGE-A1 278-286 with alanine at position 8 peptide on HLA-A*02:01 (human); test: cytokine release
T8 peptide: KVLEYVIAV

[9] = molecular target: T9, MAGE-A1 278-286 with alanine at position 5 peptide on HLA-A*02:01 (human); test: cytokine release
T9 peptide: KVLEAVIKV

[10] = molecular target: T10, MAGE-A1 278-286 with alanine at position 7 peptide on HLA-A*02:01 (human); test: cytokine release
T10 peptide: KVLEYVAKV

[11] = molecular target: T11, MAGE-A1 peptide on HLA-A*02:01 (human); test: intracellular IFNγ and IL2, 6 h; transduced human PBMCs; peptide-loaded T2 cells and 721.211-A2 cells that express the antigen; full-length, on cells; conditions: chains Valpha:Vbeta
T11 chain: KVLEYVIKV

[12] = molecular target: T11, MAGE-A1 peptide on HLA-A*02:01 (human); test: intracellular IFNγ; transduced human PBMCs (donor I); peptide titration on T2 cells; unit not printed for m2 (the others in pM); minimal activity not reached; full-length, on cells; conditions: chains Valpha:Vbeta
[13] = molecular target: MAGE-A1278-286 peptide presented on HLA-A2 on cells (peptide-loaded T2 cells; 721.211-A2 MAGE-A1+ cells) (human); test: cell-based or functional assay
[14] = molecular target: T12, MAGE-A1 peptide on HLA-A*02:01 (human); test: multimer staining
T12 peptide: KVLEYVIKV

[15] = molecular target: T1, MUC1 peptide on HLA-A*02:01; test: killing

B1: hT27 TCR m2 (beta chain S109N) (TCR, V domains shown)
Valpha: GEDVEQSLFLSVREGDSSVINCTYTDSSSTYLYWYKQEPGAGLQLLTYIFSNMDMKQDQRLTVLLNKKDKHLSLRIADTQTGDSAIYFCAGSGGGTDKLIFGTGTRLQVFP
Vbeta: GAVVSQHPSWVICKSGTSVKIECRSLDFQATTMFWYRQFPKQSLMLMATSNEGSKATYEQGVEKDKFLINHASLTLSTLTVTSAHPEDSSFYICNAREPGQGPYEQYFGPGTRLTVT
B1: recognises [1]; recognises [2]; recognises [3]. B1: recognises [4]; recognises [5]; recognises [6]. B1: recognises [7]; recognises [8]; recognises [9]. The binding result [10] was “recognises”, the percent IFNγ+ cells towards 721.211-A2 cells [11] was 49.7% and the EC50 of peptide [12] was 0.289.

B2: wild type (WT) hT27 TCR, MAGE-A1 specific (TCR)
TCR alpha: RGEDVEQSLFLSVREGDSSVINCTYTDSSSTYLYWYKQEPGAGLQLLTYIFSNMDMKQDQRLTVLLNKKDKHLSLRIADTQTGDSAIYFCAGSGGGTDKLIFGTGTRLQVFPNIQNPEPAVYQLKDPRSQDSTLCLFTDFDSQINVPKTMESGTFITDKTVLDMKAMDSKSNGAIAWSNQTSFTCQDIFKETNATYPSSDVPCDATLTEKSFETDMNLNFQNLSVMGLRILLLKVAGFNLLMTLRLWSS
TCR beta: AVVSQHPSWVICKSGTSVKIECRSLDFQATTMFWYRQFPKQSLMLMATSNEGSKATYEQGVEKDKFLINHASLTLSTLTVTSAHPEDSSFYICSAREPGQGPYEQYFGPGTRLTVTEDLRNVTPPKVSLFEPSKAEIANKQKATLVCLARGFFPDHVELSWWVNGKEVHSGVSTDPQAYKESNYSYCLSSRLRVSATFWHNPRNHFRCQVQFHGLSEEDKWPEGSPKPVTQNISAEAWGRADCGITSASYHQGVLSATILYEILLGKATLYAVLVSGLVLMAMVKKKNS
In the case of B2, the “% IFNγ+ cells after co-culture with 721.211-A2 cells” value (from here on “% IFNγ+ cells after co-culture”) [13] is reported as 3.3 % IFNγ+ and the “EC50 of IFNγ production (peptide concentration), T2 cells loaded with MAGE-A1 peptide” value (“EC50 of IFNγ production … with MAGE-A1 peptide” for short) [13] is reported as 3540 pM.

B3: hT27 TCR comprising G125V mutation in the alpha chain (m8) (TCR)
TCR alpha: B2 TCR alpha with G105V
TCR beta: B2 TCR beta
B3 was tested, and the “% IFNγ+ cells after co-culture” value [13] was 3.8 % IFNγ+, the “EC50 of IFNγ production … with MAGE-A1 peptide” value [13] was 0.982 pM and the “EC50 of IFNγ production against WT hT27” value [13] was ~4 orders of magnitude lower than WT hT27 TCR. For the same binder, the “EC50 of IL2 production against WT hT27” value [13] was ~3 orders of magnitude lower than WT hT27 TCR.

B4: hT27 TCR comprising S109N mutation in the beta chain (m2) (TCR, V domains shown)
V domain 1: RGEDVEQSLFLSVREGDSSVINCTYTDSSSTYLYWYKQEPGAGLQLLTYIFSNMDMKQDQRLTVLLNKKDKHLSLRIADTQTGDSAIYFCAGSGGGTDKLIFGTGTRLQVFP
V domain 2: AVVSQHPSWVICKSGTSVKIECRSLDFQATTMFWYRQFPKQSLMLMATSNEGSKATYEQGVEKDKFLINHASLTLSTLTVTSAHPEDSSFYICNAREPGQGPYEQYFGPGTRLTVTE
In the case of B4, the “% IFNγ+ cells after co-culture” value [13] is reported as 49.7 % IFNγ+, the “EC50 of IFNγ production against WT hT27” value [13] is reported as ~4 orders of magnitude lower than WT hT27 TCR and the “EC50 of IL2 production against WT hT27” value [13] is reported as ~3 orders of magnitude lower than WT hT27 TCR.

B5: hT27 TCR comprising T63I mutation in the beta chain (m3) (TCR, V domains shown)
V domain 1: B4 V domain 1
V domain 2: B4 V domain 2 with T48I, N94S
In the case of B5, the “% IFNγ+ cells after co-culture” value [13] is reported as 6.9 % IFNγ+, the “EC50 of IFNγ production … with MAGE-A1 peptide” value [13] is reported as 0.352 pM and the “EC50 of IFNγ production against WT hT27” value [13] is reported as ~4 orders of magnitude lower than WT hT27 TCR. The “EC50 of IL2 production against WT hT27” value [13] was ~3 orders of magnitude lower than WT hT27 TCR.

B6: hT27 TCR comprising W55L+Y56F mutations in the alpha chain (m9) (TCR, V domains shown)
V domain 1: EDVEQSLFLSVREGDSSVINCTYTDSSSTYLYLFKQEPGAGLQLLTYIFSNMDMKQDQRLTVLLNKKDKHLSLRIADTQTGDSAIYFCAGSGGGTDKLIFGTGTRLQVFP
V domain 2: B4 V domain 2 with N94S
B6 was tested, and the “% IFNγ+ cells after co-culture” value [13] was 5.4 % IFNγ+, the “EC50 of IFNγ production … with MAGE-A1 peptide” value [13] was 0.275 pM and the “EC50 of IFNγ production against WT hT27” value [13] was ~4 orders of magnitude lower than WT hT27 TCR. For the same binder, the “EC50 of IL2 production against WT hT27” value [13] was ~3 orders of magnitude lower than WT hT27 TCR.

B7: hT27 TCR with beta chain S32T and S109N mutations (TCR, V domains shown)
Valpha: B1 Valpha
Vbeta: B1 Vbeta with S18T
B7: recognises [14].

B8: hT27 TCR m3 (beta chain T63I) (TCR, V domains shown)
Valpha: B1 Valpha
Vbeta: B1 Vbeta with T49I, N95S
B8: recognises [2]; recognises [3]; recognises [4]. B8: recognises [6]; recognises [8]; recognises [10]. B8: recognises [14]; no recognition [15].

B9: hT27 TCR m7 (alpha chain G125A) (TCR, V domains shown)
Valpha: B1 Valpha with G104A
Vbeta: B1 Vbeta with N95S
B9: recognises [14].

B10: hT27 TCR m8 (alpha chain G125V) (TCR, V domains shown)
Valpha: B1 Valpha with G104V
Vbeta: B1 Vbeta with N95S
B10: recognises [2]; recognises [3]; recognises [4]. B10: recognises [6]; recognises [8]; recognises [10]. B10: recognises [14]; no recognition [15].

B11: hT27 TCR (TCR, V domains shown)
Valpha: B1 Valpha
Vbeta: B1 Vbeta with N95S
B11: recognises [2]; no recognition [4]; no recognition [5]. B11: recognises [6]; no recognition [7]; no recognition [8]. B11: no recognition [9]; no recognition [15].
